In paper PMC10842004 (Journal of molecular biology, 2023):

Target: ubiquitin (UniProt P0CG48 1-76)
Assay: NMR titration

binding result: binds
B1: RAD23A UBA1 domain (aa 160–205) (domain or fragment)
chain: not shown
